The results in this text go back to patent US20060084792A1 (UNITED STATES OF AMERICA AS REPRESENTED BY THE …, published 2006).

Data set [1] deals with the molecule itself. Description: non-denaturing gradient PAGE (FIG. 18) and TEM; self-assembly of subunits. Here is the method: (§1) The purity of the proteins was evaluated using denaturing polyacrylamide gel electrophoresis (GeneMate 8-16% Express Gels, ISC BioExpress). The ability of each of the circular permutations to form double rings was assessed by non-denaturing 4-40% gradient polyacrylamide gel (FIG. 18) as previously described (J K Trent, et al., 1991 Nature 354:490-493).
(§2) Samples were prepared for the electron microscope by drop casting on carbon-coated formvar substrates (Ladd) and stained with 1% uranyl acetate. Samples were visualized using a Leo 912AB electron microscope in bright field TEM mode at 65 kV with a tungsten filament electron source.
(§3) Samples of the five different circular permutated chaperonin polypeptides (without the joined EYFP sequence) were analyzed at 1 hour or 24 hours after addition of 1 mM ATP and 25 mM Mg²⁺ (FIG. 19A-J). All five circular permuted chaperonins analyzed formed double rings having the same structure as wild-type chaperonin double rings, with two rings of nine subunits each (FIG. 19A-E). […] The circular permutated chaperonin polypeptides 480 and 499 formed predominantly filamentous structures. For permutants at positions 480 and 499, heating the sample to 70 degrees C. for 30 minutes immediately after addition of ATP and Mg²⁺ produced longer filaments.

Data set [2] deals with the molecule itself. The data set is described as follows: summary of native PAGE and TEM; self-assembly of subunits. Here is the method: as §1, §2, §3
Data set [3] concerns the molecule itself. The data set is described as follows: TEM, negative stain, after adding 1 mM ATP and 25 mM Mg2+; self-assembly of subunits. Here is the method: as §2, §3

B1: position 316 circular permutant chaperonin protein (Sulfolobus shibatae TF55 beta subunit, termini relocated after residue 316) (other)
chain: MAILAVRRAKKSDLEKLARATGGRVISNIDELTSQDLGYAALVEERKVGEDKIVFVEGAKNPKSVSILIRGGLERVVDETERALRDALGTVADVIRDGRAVAGGGAVEIEIAKRLRKYAPQVGGKEQLAIEAYANAIEGLIMILAENAGLDPIDKLMQLRSLHENETNKWYGLNLFTGNPEDMWKLGVIEPALVKMNAIKAATEAVTLVLRIDDIVGGSGGTIPVIILKEGSSRTYGKEALRANIAAVKAIEEALKSTYGPRGMDKILVDSLGDITITNDGATILDKMDLQHPTGKLLVQIAKGQDEETADGTKTAVILAGELAKKAEDLLYKEIHPTIIVSGYKKAEEIALKTIQDIAQPVSINDTDVLRKVALTSLGSKAVAGAREYLADLVVKAVAQVAELRGDKWYVDLDNVQIVKKHGGSINDTQLVYGIVVDKEVVHPGMPKRIENAKIALLDASLEVEKPELDAEIRINDPTQMHKFLEEEENILKEKVDKIAATGANVVIAQKGIDEVAQHYLAKKG
notes: Entry is the single subunit; Original termini are joined by the linker GGSGGT; Assembles into double rings with two rings of nine subunits each; also called circular permutant at position 316; permutant 316
On to B1, for which the binding result in data set [1] is recorded as “binds”.

B2: position 267 circular permutant chaperonin protein (Sulfolobus shibatae TF55 beta subunit, termini relocated after residue 267) (other)
chain: MADPTQMHKFLEEEENILKEKVDKIAATGANVVIAQKGIDEVAQHYLAKKGILAVRRAKKSDLEKLARATGGRVISNIDELTSQDLGYAALVEERKVGEDKIVFVEGAKNPKSVSILIRGGLERVVDETERALRDALGTVADVIRDGRAVAGGGAVEIEIAKRLRKYAPQVGGKEQLAIEAYANAIEGLIMILAENAGLDPIDKLMQLRSLHENETNKWYGLNLFTGNPEDMWKLGVIEPALVKMNAIKAATEAVTLVLRIDDIVGGSGGTIPVIILKEGSSRTYGKEALRANIAAVKAIEEALKSTYGPRGMDKILVDSLGDITITNDGATILDKMDLQHPTGKLLVQIAKGQDEETADGTKTAVILAGELAKKAEDLLYKEIHPTIIVSGYKKAEEIALKTIQDIAQPVSINDTDVLRKVALTSLGSKAVAGAREYLADLVVKAVAQVAELRGDKWYVDLDNVQIVKKHGGSINDTQLVYGIVVDKEVVHPGMPKRIENAKIALLDASLEVEKPELDAEIRIN
notes: Entry is the single subunit; Original termini are joined by the linker GGSGGT; Assembles into double rings with two rings of nine subunits each
Regarding B2, the binding result in data set [2] was “binds”.

B3: position 499 circular permutant chaperonin protein (Sulfolobus shibatae TF55 beta subunit, termini relocated after residue 499) (other)
chain: MALGVIEPALVKMNAIKAATEAVTLVLRIDDIVGGSGGTIPVIILKEGSSRTYGKEALRANIAAVKAIEEALKSTYGPRGMDKILVDSLGDITITNDGATILDKMDLQHPTGKLLVQIAKGQDEETADGTKTAVILAGELAKKAEDLLYKEIHPTIIVSGYKKAEEIALKTIQDIAQPVSINDTDVLRKVALTSLGSKAVAGAREYLADLVVKAVAQVAELRGDKWYVDLDNVQIVKKHGGSINDTQLVYGIVVDKEVVHPGMPKRIENAKIALLDASLEVEKPELDAEIRINDPTQMHKFLEEEENILKEKVDKIAATGANVVIAQKGIDEVAQHYLAKKGILAVRRAKKSDLEKLARATGGRVISNIDELTSQDLGYAALVEERKVGEDKIVFVEGAKNPKSVSILIRGGLERVVDETERALRDALGTVADVIRDGRAVAGGGAVEIEIAKRLRKYAPQVGGKEQLAIEAYANAIEGLIMILAENAGLDPIDKLMQLRSLHENETNKWYGLNLFTGNPEDMWK
notes: Entry is the single subunit; Original termini are joined by the linker GGSGGT; Assembles into double rings with two rings of nine subunits each; also called circular permutant at position 499; permutant 499
Consider B3, for which, in data set [1], the binding result is “binds”.

B4: position 480 circular permutant chaperonin protein (Sulfolobus shibatae TF55 beta subunit, termini relocated after residue 480) (other)
chain: MANKWYGLNLFTGNPEDMWKLGVIEPALVKMNAIKAATEAVTLVLRIDDIVGGSGGTIPVIILKEGSSRTYGKEALRANIAAVKAIEEALKSTYGPRGMDKILVDSLGDITITNDGATILDKMDLQHPTGKLLVQIAKGQDEETADGTKTAVILAGELAKKAEDLLYKEIHPTIIVSGYKKAEEIALKTIQDIAQPVSINDTDVLRKVALTSLGSKAVAGAREYLADLVVKAVAQVAELRGDKWYVDLDNVQIVKKHGGSINDTQLVYGIVVDKEVVHPGMPKRIENAKIALLDASLEVEKPELDAEIRINDPTQMHKFLEEEENILKEKVDKIAATGANVVIAQKGIDEVAQHYLAKKGILAVRRAKKSDLEKLARATGGRVISNIDELTSQDLGYAALVEERKVGEDKIVFVEGAKNPKSVSILIRGGLERVVDETERALRDALGTVADVIRDGRAVAGGGAVEIEIAKRLRKYAPQVGGKEQLAIEAYANAIEGLIMILAENAGLDPIDKLMQLRSLHENET
notes: Entry is the single subunit; Original termini are joined by the linker GGSGGT; Assembles into double rings with two rings of nine subunits each; also called circular permutant at position 480; permutant 480
On to B4, for which the binding result in data set [1] is reported as “binds”.

B5: position 153 circular permutant chaperonin protein (Sulfolobus shibatae TF55 beta subunit, termini relocated after residue 153) (other)
chain: MAINDTDVLRKVALTSLGSKAVAGAREYLADLVVKAVAQVAELRGDKWYVDLDNVQIVKKHGGSINDTQLVYGIVVDKEVVHPGMPKRIENAKIALLDASLEVEKPELDAEIRINDPTQMHKFLEEEENILKEKVDKIAATGANVVIAQKGIDEVAQHYLAKKGILAVRRAKKSDLEKLARATGGRVISNIDELTSQDLGYAALVEERKVGEDKIVFVEGAKNPKSVSILIRGGLERVVDETERALRDALGTVADVIRDGRAVAGGGAVEIEIAKRLRKYAPQVGGKEQLAIEAYANAIEGLIMILAENAGLDPIDKLMQLRSLHENETNKWYGLNLFTGNPEDMWKLGVIEPALVKMNAIKAATEAVTLVLRIDDIVGGSGGTIPVIILKEGSSRTYGKEALRANIAAVKAIEEALKSTYGPRGMDKILVDSLGDITITNDGATILDKMDLQHPTGKLLVQIAKGQDEETADGTKTAVILAGELAKKAEDLLYKEIHPTIIVSGYKKAEEIALKTIQDIAQPVS
notes: Entry is the single subunit; Original termini are joined by the linker GGSGGT; also called circular permutant at position 153; permutant 153
In the case of B5, in data set [3], the binding result is given as “binds”.
